Measurements: the supplement of paper PMC9112550, “Optimization of the antimicrobial peptide Bac7 by deep mutational scanning” (BMC Biology, 2022)

Test system: Escherichia coli TOP10
Assay: shrunken log2 fold change of peptide-encoding DNA abundance (4.5 h post-induction vs induction); higher = less antimicrobial activity (less host growth inhibition)
Conditions: time post-induction: 4.5 h; library: site-saturation at positions 5, 18, 19, 20
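Also: peptides expressed intracellularly from a pBAD plasmid library in pooled LB shake-flask culture, induced with 0.3% L-arabinose, DNA abundance read by NGS, three biological replicates, DESeq2 with apeglm shrinkage.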

Sequence | shrunken log2 fold change
RRIRTRPPRLPRPRPRPMFNPRP | -0.643
RRIRVRPPRLPRPRPRPLPPPRP | 0.418
RRIRDRPPRLPRPRPRPTDDPRP | -0.0281
RRIRARPPRLPRPRPRPSFLPRP | -0.338
RRIRMRPPRLPRPRPRPFWYPRP | -0.0609
RRIRYRPPRLPRPRPRPRHIPRP | -0.767
RRIRWRPPRLPRPRPRPIVFPRP | -0.125
RRIRFRPPRLPRPRPRPDYVPRP | -0.00174
RRIRGRPPRLPRPRPRPHHSPRP | -0.196
RRIRFRPPRLPRPRPRPQWRPRP | 1.49
RRIRCRPPRLPRPRPRPISEPRP | -0.0601
RRIRMRPPRLPRPRPRPCLRPRP | -0.0737
RRIRIRPPRLPRPRPRPLVRPRP | 0.0548
RRIRLRPPRLPRPRPRPDFKPRP | -0.06
RRIRERPPRLPRPRPRPVMKPRP | -0.236
RRIRHRPPRLPRPRPRPMAAPRP | 0.53
RRIRTRPPRLPRPRPRPHQNPRP | -0.253
RRIRCRPPRLPRPRPRPAHVPRP | 0.019
RRIRDRPPRLPRPRPRPLETPRP | 0.73
RRIRHRPPRLPRPRPRPVACPRP | 0.00664
RRIRHRPPRLPRPRPRPRPEPRP | -0.165
RRIRVRPPRLPRPRPRPTLCPRP | 0.0223
RRIRQRPPRLPRPRPRPFMEPRP | 0.212
RRIRPRPPRLPRPRPRPKNQPRP | -0.108
RRIRVRPPRLPRPRPRPWILPRP | 0.000714

Sequence | shrunken log2 fold change
RRIRNRPPRLPRPRPRPWNKPRP | -0.184
RRIRGRPPRLPRPRPRPVWHPRP | 0.228
RRIRSRPPRLPRPRPRPQHNPRP | -0.628
RRIRQRPPRLPRPRPRPEQHPRP | -0.0137
RRIRERPPRLPRPRPRPKEDPRP | 0.0193
RRIRLRPPRLPRPRPRPDQAPRP | -0.00133
RRIRQRPPRLPRPRPRPHVKPRP | -0.274
RRIRHRPPRLPRPRPRPLVIPRP | -0.343
RRIRFRPPRLPRPRPRPTVRPRP | 0.0843
RRIRPRPPRLPRPRPRPPGYPRP | 0.116
RRIRWRPPRLPRPRPRPQYYPRP | -0.0952
RRIRRRPPRLPRPRPRPQMCPRP | 0.0865
RRIRLRPPRLPRPRPRPFPKPRP | -0.103
RRIRCRPPRLPRPRPRPGFVPRP | 0.528
RRIRIRPPRLPRPRPRPMCRPRP | -0.236
RRIRIRPPRLPRPRPRPGYNPRP | -1.28
RRIRFRPPRLPRPRPRPARDPRP | 0.732
RRIRIRPPRLPRPRPRPQNLPRP | -0.261
RRIRERPPRLPRPRPRPTPLPRP | 0.0281
RRIRRRPPRLPRPRPRPSYRPRP | -0.142
RRIRSRPPRLPRPRPRPAHNPRP | 0.133
RRIRARPPRLPRPRPRPGKSPRP | 0.294
RRIRSRPPRLPRPRPRPKDIPRP | -0.828
RRIRRRPPRLPRPRPRPWAHPRP | 0.0718
RRIRQRPPRLPRPRPRPCAKPRP | 0.0917

Sequence | shrunken log2 fold change
RRIRNRPPRLPRPRPRPVNRPRP | 0.00717
RRIRLRPPRLPRPRPRPLRMPRP | 0.222
RRIRARPPRLPRPRPRPGQDPRP | 0.15
RRIRMRPPRLPRPRPRPRGVPRP | 1.23
RRIRPRPPRLPRPRPRPDLIPRP | -0.036
RRIRPRPPRLPRPRPRPVTSPRP | 0.0344
RRIRKRPPRLPRPRPRPLSQPRP | 0.028
RRIRCRPPRLPRPRPRPVWPPRP | 0.239
RRIRTRPPRLPRPRPRPRWVPRP | 0.216
RRIRRRPPRLPRPRPRPGMQPRP | 0.245
RRIRHRPPRLPRPRPRPNAQPRP | -0.00277
RRIRWRPPRLPRPRPRPHLRPRP | 0.039
RRIRVRPPRLPRPRPRPCNVPRP | -0.452
RRIRKRPPRLPRPRPRPIKMPRP | 0.0326
RRIRLRPPRLPRPRPRPRDTPRP | -0.0364
RRIRCRPPRLPRPRPRPAEGPRP | 0.14
RRIRQRPPRLPRPRPRPGCFPRP | 0.0403
RRIRMRPPRLPRPRPRPHQHPRP | -0.0409
RRIRFRPPRLPRPRPRPYEHPRP | -0.0962
RRIRWRPPRLPRPRPRPERRPRP | 0.327
RRIRNRPPRLPRPRPRPVFHPRP | -0.256
RRIRGRPPRLPRPRPRPNATPRP | 3.1
RRIRRRPPRLPRPRPRPNNHPRP | -0.374
RRIRARPPRLPRPRPRPIFPPRP | 0.32
RRIRFRPPRLPRPRPRPAYEPRP | 0.0737

Sequence | shrunken log2 fold change
RRIRSRPPRLPRPRPRPLHSPRP | -0.0322
RRIRLRPPRLPRPRPRPPYRPRP | -0.0286
RRIRERPPRLPRPRPRPMEKPRP | -0.0775
RRIRPRPPRLPRPRPRPKDCPRP | 0.107
RRIRARPPRLPRPRPRPTQEPRP | 0.0329
RRIRQRPPRLPRPRPRPQHEPRP | 0.119
RRIRGRPPRLPRPRPRPCLSPRP | 0.0424
RRIRTRPPRLPRPRPRPYYPPRP | -0.335
RRIRERPPRLPRPRPRPYMDPRP | -0.534
RRIRRRPPRLPRPRPRPEEEPRP | 0.855
RRIRRRPPRLPRPRPRPTMTPRP | 0.487
RRIRPRPPRLPRPRPRPYRGPRP | 0.153
RRIRIRPPRLPRPRPRPVPVPRP | 0.0789
RRIRLRPPRLPRPRPRPVSHPRP | 0.0743
RRIRERPPRLPRPRPRPFPWPRP | -0.0723
RRIRLRPPRLPRPRPRPWQMPRP | 0.123
RRIRVRPPRLPRPRPRPWKPPRP | 0.0596
RRIRPRPPRLPRPRPRPRRQPRP | 0.673
RRIRDRPPRLPRPRPRPFAMPRP | -0.188
RRIRDRPPRLPRPRPRPLFFPRP | 0.648
RRIRKRPPRLPRPRPRPEHNPRP | 0.368
RRIRRRPPRLPRPRPRPKGVPRP | 0.401
RRIRTRPPRLPRPRPRPLQTPRP | -0.00743
RRIRIRPPRLPRPRPRPCKKPRP | -0.0718
RRIRKRPPRLPRPRPRPSFDPRP | 0.301

Sequence | shrunken log2 fold change
RRIRYRPPRLPRPRPRPLVSPRP | -0.113
RRIRARPPRLPRPRPRPADSPRP | 0.00021
RRIRWRPPRLPRPRPRPLINPRP | -0.229
RRIRFRPPRLPRPRPRPNAIPRP | -0.322
RRIRLRPPRLPRPRPRPNLGPRP | -0.0507
RRIRKRPPRLPRPRPRPGEEPRP | 0.108
RRIRTRPPRLPRPRPRPRAWPRP | 0.132
RRIRTRPPRLPRPRPRPPDWPRP | 0.705
RRIRTRPPRLPRPRPRPCALPRP | -0.0236
RRIRIRPPRLPRPRPRPGSIPRP | -0.471
RRIRTRPPRLPRPRPRPRTEPRP | 0.153
RRIRYRPPRLPRPRPRPFTFPRP | -1.08
RRIRYRPPRLPRPRPRPQDSPRP | -0.0125
RRIRRRPPRLPRPRPRPWEVPRP | 0.125
RRIRYRPPRLPRPRPRPVTPPRP | -0.118
RRIRDRPPRLPRPRPRPQKQPRP | 0.086
RRIRIRPPRLPRPRPRPVYLPRP | -0.0309
RRIRARPPRLPRPRPRPEDDPRP | 0.306
RRIRGRPPRLPRPRPRPQGVPRP | -0.0465
RRIRSRPPRLPRPRPRPVPCPRP | -0.226
RRIRVRPPRLPRPRPRPYSNPRP | -0.676
RRIRRRPPRLPRPRPRPHVPPRP | -0.148
RRIRERPPRLPRPRPRPHWGPRP | 0.0212
RRIRPRPPRLPRPRPRPIEPPRP | 0.109
RRIRSRPPRLPRPRPRPVTVPRP | -0.057

Sequence | shrunken log2 fold change
RRIRIRPPRLPRPRPRPHSSPRP | -0.448
RRIRLRPPRLPRPRPRPQESPRP | 0.133
RRIRHRPPRLPRPRPRPCQAPRP | -0.119
RRIRNRPPRLPRPRPRPGMHPRP | -0.015
RRIRNRPPRLPRPRPRPTRRPRP | 0.805
RRIRSRPPRLPRPRPRPPDRPRP | 0.643
RRIRWRPPRLPRPRPRPFLGPRP | -0.552
RRIRGRPPRLPRPRPRPKFSPRP | 0.392
RRIRQRPPRLPRPRPRPGGWPRP | 0.45
RRIRGRPPRLPRPRPRPLNNPRP | -0.109
RRIRHRPPRLPRPRPRPAAQPRP | -0.0888
RRIRSRPPRLPRPRPRPKYYPRP | -0.918
RRIRFRPPRLPRPRPRPTCKPRP | -0.295
RRIRLRPPRLPRPRPRPGYMPRP | -0.459
RRIRMRPPRLPRPRPRPTIYPRP | 0.713
RRIRHRPPRLPRPRPRPVMSPRP | -0.0285
RRIRHRPPRLPRPRPRPRYWPRP | 0.319
RRIRKRPPRLPRPRPRPLIVPRP | -0.223
RRIRFRPPRLPRPRPRPQQWPRP | -0.208
RRIRCRPPRLPRPRPRPLTFPRP | -0.419
RRIRERPPRLPRPRPRPMFKPRP | -0.204
RRIRRRPPRLPRPRPRPHAYPRP | -0.394
RRIRARPPRLPRPRPRPEGEPRP | 1.39
RRIRVRPPRLPRPRPRPAVAPRP | 0.266
RRIRGRPPRLPRPRPRPSCNPRP | 0.588
